The target in this assay is recombinant streptokinase from Streptococcus pyrogenes (so in the source) (Streptococcus pyrogenes (so in the source)). Kind of assay: SPR (Biacore T200), SK on Ni2+-NTA chip, 1:1 Langmuir model. In general terms: In SPR one partner is held on a chip, and binding of the other changes the refractive index at the surface.
Chain of native plasminogen (purchased from Merck, purified from human plasma) (P00747 20-810 limits assumed): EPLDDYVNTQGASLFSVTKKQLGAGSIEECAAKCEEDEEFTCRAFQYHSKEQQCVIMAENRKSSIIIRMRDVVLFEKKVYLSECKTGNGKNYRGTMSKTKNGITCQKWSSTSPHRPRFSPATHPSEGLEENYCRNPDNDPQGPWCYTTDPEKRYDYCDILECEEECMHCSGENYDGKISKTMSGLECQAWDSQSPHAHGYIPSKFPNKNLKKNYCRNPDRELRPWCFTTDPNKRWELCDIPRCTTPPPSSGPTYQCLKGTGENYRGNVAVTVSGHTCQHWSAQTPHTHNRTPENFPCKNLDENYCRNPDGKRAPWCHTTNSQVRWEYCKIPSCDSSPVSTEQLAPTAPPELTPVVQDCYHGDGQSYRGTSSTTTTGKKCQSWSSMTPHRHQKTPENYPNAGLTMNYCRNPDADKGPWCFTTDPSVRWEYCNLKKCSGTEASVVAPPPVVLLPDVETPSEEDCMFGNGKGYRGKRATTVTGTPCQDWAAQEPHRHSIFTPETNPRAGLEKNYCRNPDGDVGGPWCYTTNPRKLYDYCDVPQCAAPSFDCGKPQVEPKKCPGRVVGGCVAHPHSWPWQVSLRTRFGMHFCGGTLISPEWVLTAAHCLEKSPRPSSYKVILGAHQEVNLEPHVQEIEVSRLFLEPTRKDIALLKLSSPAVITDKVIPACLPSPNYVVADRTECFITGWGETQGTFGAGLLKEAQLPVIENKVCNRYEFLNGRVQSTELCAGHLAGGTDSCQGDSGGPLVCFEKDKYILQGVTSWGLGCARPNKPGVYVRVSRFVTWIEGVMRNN
Chain of recombinant plasminogen (P00747 20-810 limits assumed): as above
Chain of native plasmin (purchased from Haematologic Technologies) (P00747 97-580 limits assumed): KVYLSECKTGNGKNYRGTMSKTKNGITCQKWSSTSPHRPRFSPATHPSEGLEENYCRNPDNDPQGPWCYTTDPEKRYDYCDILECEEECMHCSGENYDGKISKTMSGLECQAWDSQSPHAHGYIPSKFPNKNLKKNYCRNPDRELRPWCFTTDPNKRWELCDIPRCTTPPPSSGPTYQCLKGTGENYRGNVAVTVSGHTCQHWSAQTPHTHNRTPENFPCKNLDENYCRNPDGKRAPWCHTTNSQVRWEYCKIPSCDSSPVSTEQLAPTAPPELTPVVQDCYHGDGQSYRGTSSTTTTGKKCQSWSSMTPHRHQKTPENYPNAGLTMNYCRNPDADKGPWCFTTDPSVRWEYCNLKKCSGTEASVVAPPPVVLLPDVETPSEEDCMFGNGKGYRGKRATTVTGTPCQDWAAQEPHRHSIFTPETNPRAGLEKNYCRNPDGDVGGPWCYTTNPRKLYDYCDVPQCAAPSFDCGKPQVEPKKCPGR
Chain of native plasmin (purchased from Haematologic Technologies) (P00747 581-810 limits assumed): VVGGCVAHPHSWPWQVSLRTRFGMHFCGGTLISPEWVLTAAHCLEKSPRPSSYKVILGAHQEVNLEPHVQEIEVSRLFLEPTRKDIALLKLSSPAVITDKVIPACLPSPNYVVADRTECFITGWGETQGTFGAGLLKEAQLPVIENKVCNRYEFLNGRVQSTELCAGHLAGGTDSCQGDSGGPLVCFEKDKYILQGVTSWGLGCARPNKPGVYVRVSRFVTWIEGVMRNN
Regarding “native plasmin (purchased from Haematologic Technologies) (from UniProt P00747 97-580; P00747 581-810) (enzyme)”, the Kd came out at 0.33 nM, the koff stood at 0.0023 s⁻¹ and the kon stood at 7.1e+06 M⁻¹ s⁻¹.
As to “native plasminogen (purchased from Merck, purified from human plasma) (from UniProt P00747 20-810)”, the Kd was found to be 1.4 nM, the koff is 0.00032 s⁻¹ and the kon turned out to be 230000 M⁻¹ s⁻¹.
Taken in the same sequence, the figures for “recombinant plasminogen (from UniProt P00747 20-810)” were 1.4 nM, 0.00036 s⁻¹ and 270000 M⁻¹ s⁻¹.

In general, Kd refers to the equilibrium constant for the complex coming apart. In general, koff refers to the first-order rate constant of dissociation. What is called kon is the second-order rate constant of association.

The record behind these values is patent publication US20220267751A1.
